± gives the half width of the 95% confidence interval.
Legend:
[1] = folding stability dG unfold (combined trypsin and chymotrypsin); higher = more stable
Outline: (§1)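 Designed mini-proteins (under 80 residues, no cysteine) in a PA-tagged cDNA display construct were digested with trypsin and chymotrypsin. Each protease was used at 11 concentrations (threefold dilutions) plus a no-protease condition, followed by sequencing. K50 was inferred by Bayesian fitting of sequencing counts, and unfolding free energy was derived against a sequence-predicted unfolded-state K50 and a shared folded-state K50, per protease or combined. Only designs with AlphaFold2 dimer inter-PAE above 15 were kept.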

[2] = folding stability dG unfold from chymotrypsin proteolysis; higher = more stable
Outline: as §1

[3] = folding stability dG unfold from trypsin proteolysis; higher = more stable
Outline: as §1

Row | Sequence | folding stability dG unfold [1] [kcal/mol] | folding stability dG unfold [2] [kcal/mol] | folding stability dG unfold [3] [kcal/mol]
1 | SKETETVEMEITITVNGKKVKIKATFTRNKDGSITMTITYEDGKKIEITFTNGKIVIVDKKTKKIIAEIPSA [r9_970_TrROS_Hall] | 4.14 ± 0.25 | 4.41 ± 0.15 | 2.54 ± 0.19
2 | SAGGSAGGSAGKWIMFDSPEDIEEKLKENGYRIKNIEPQKMGGGPHVYVPIEIKPPPEDKSAGGSAGGSAGG [r11_141_TrROS] | 0.155 ± 0.38 | 0.43 ± 0.39 | -0.506 ± 0.54
3 | SAKIEINPEGGQIEMDYELNGKKVKITIQMPPENGMFPVKIEPPDLGKPIEVPYPFNSVDDMLDWAAEASAG [r14_803_TrROS] | 0.433 ± 0.36 | 0.74 ± 0.13 | 0.488 ± 0.11
4 | SAGGDNVRPIKFEFKDGVKKSIYRSEDMIYINVEFYYDGRPLYRHSIEIPNIPPGDDAEIKFKIPPGSAGGS [r8_155_TrROS] | 1.24 ± 0.21 | 1.55 ± 0.22 | 0.372 ± 0.18
5 | SAGGMESSVTTTPDPNSDTTTTTTTVPLPDETTTTTTTTTTAPGTVTTTTTTYPPGGTPTTTTSTTASAGGS [r16_733_JUSTAS] | 1.92 ± 0.12 | 1.61 ± 0.052 | 2.38 ± 0.17
6 | SAGKKQEVTIMIPIRGPAQAREQVEEFANDFPIKPTRVHPNPNKNHYWVMVTMKVPGAKIKIMIWIPPSAGG [r19_262_TrROS] | 3.67 ± 0.13 | 4.19 ± 0.057 | 2.94 ± 0.11
7 | SAGGSAGGSAPNYIKIRIKFQSDGKRHSMEIFIPDNPKKAKQIAKEMANMGGIEDVEVERYSAGGSAGGSAG [r3_310_TrROS] | 0.667 ± 0.16 | 0.659 ± 0.13 | 0.515 ± 0.13
8 | SAGGSAGGSPLVKTTTSVDPVGPDRTLTTSTATLPSGGTTVTTTTFLTSPDGTVPVATTTTPSASAGGSAGG [r6_471_JUSTAS] | -0.11 ± 0.21 | 0.24 ± 0.14 | -0.461 ± 0.15
9 | SAHTWEIWFPPGLTPEEIQEKLKEEFPGYEIDVDVERDPEPGWYRIEVTMKDPQQRRRVQKKIREILQESAG [r14_443_TrROS] | 2.4 ± 0.14 | 2.39 ± 0.048 | 2.34 ± 0.12
10 | SAGGSAGGSAKITITKEDIVSYDEENKTFTIKLKDGSTIKIRVEKVKDGKIKVYDEDTGKPISAGGSAGGSA [r18_418_TrROS_Hall] | 1.65 ± 0.18 | 1.79 ± 0.048 | 1.27 ± 0.063
11 | SAGGSAGGSAGTEIKIPPEFPDLPVKVYPIEVTLLGKGKPKKVILNVATTPDAIIAVDPESAGGSAGGSAGG [r11_21_TrMRF] | -0.623 ± 0.2 | -0.61 ± 0.28 | -0.478 ± 0.1
12 | SAGGSAGGSMSEELLAEGPVRIRVRVRNKDGSVEEIEVEAGEEIELPEELKNQDVEIVSIEPVSAGGSAGGS [r12_161_TrROS_Hall] | 1.74 ± 0.089 | 2.15 ± 0.088 | 0.838 ± 0.058
13 | SMPVTITITLHKDPNSDVIPVRLEMTDSAGNPIGEREIDYTTTEEEARERAVALAEEIAAATGYTIEFGESA [r9_31_JUSTAS] | 0.8 ± 0.11 | 0.266 ± 0.22 | 1.27 ± 0.069
14 | SAGRIEIDKIEPGKPVRIKIKIEMPDPNGKKRKMDFTRRVRVDPENGMIYIPITMPNGRPIPIMINVKKSAG [r5_743_TrROS] | 0.619 ± 0.29 | 0.552 ± 0.43 | 0.313 ± 0.23
15 | SAGGSAGGSITPEEAKALAEEIKKALGVPDVEVLEIRVERDPERDFYTADIVIRLPDGSVIRASAGGSAGGS [r12_508_TrMRF] | 1.7 ± 0.11 | 1.04 ± 0.064 | 2.05 ± 0.051
16 | SAGGMSPDQIWKAKLLSRKKGKNGSVYNIVIYNPDNPKPIFINKPGDNPEDVLKELEELVKKGPIDLESAGG [r13_286_TrMRF] | 0.468 ± 0.18 | 0.549 ± 0.21 | 0.354 ± 0.22
17 | SGNGEVEVEINIRIVIEPWDPNGEPDPVPIAEIPIKAEYDANDPEAVDFAVLDILDLLAPENPGYRIHIESA [r9_1112_TrROS] | 0.731 ± 0.062 | 0.379 ± 0.047 | 1.11 ± 0.067
18 | SAGGSMTEEELEKKAKEIAEELEKKYKEENPNVEVKVTFEVIPEKGIIKITATSPKGKKLKEIIIPLLSAGG [r13_247_JUSTAS] | 3.9 ± 0.31 | 3.54 ± 0.23 | 3.74 ± 0.28
19 | SAGGSAGGMLTFTFSLSEIPPYPSGSLSLEEVKKRMEPILRKLLGRKDVKIKVESLPDGTIRVTVESAGGSA [r15_562_JUSTAS] | 4.37 ± 0.27 | 4.99 ± 0.23 | 3.95 ± 0.25
20 | SAGGMKITLPPGAEITEVFELPDGQLLLRVRHKDTGKTEVVPASDLEIEIEPGEEVEVEIFRVPKEDLSAGG [r13_173_TrROS_Hall] | 1.39 ± 0.14 | 1.45 ± 0.13 | 1.38 ± 0.069
21 | SAGGSAGGSAGDIPAIPKVIFIPYPIEKIEVFEDSVVVRVIHPDGGSETIVFPDRALILGSAGGSAGGSAGG [r11_957_TrMRF] | 1.53 ± 0.11 | 1.47 ± 0.03 | 1.6 ± 0.042

Row | Sequence | folding stability dG unfold [1] [kcal/mol] | folding stability dG unfold [2] [kcal/mol] | folding stability dG unfold [3] [kcal/mol]
22 | SYTLEFEDITLKPVEPGTKISIPGYVKYDGVLYKVTEVTYDPEKGTITITIKVEPEGKPKTLTITIPIPPPS [r1_47_JUSTAS] | 2.06 ± 0.19 | 1.85 ± 0.086 | 2.24 ± 0.11
23 | SAGGGSMAASSVTSEEKPLPDGSSLSIPEITRPDNVATLTVEYYDPKTGTKYTFTLTIPISPDDTVTLSAGG [r13_190_JUSTAS] | 1.99 ± 0.15 | 1.97 ± 0.06 | 1.79 ± 0.086
24 | SAGGSAGPLPNEKVEVTLTIPLNVLVLDEDGEPLTPEEIARRVRELFSDVSVTLEPGDRLVITLTESAGGSA [r15_645_TrMRF] | 1.85 ± 0.049 | 1.7 ± 0.022 | 2.006 ± 0.015
25 | SAGGSAGGSAGGPNIKIKDVHEHPPEDGNPIVMFEIKAKDDDGEKVYIIITPDKIHIMPISAGGSAGGSAGG [r7_960_TrROS] | 0.927 ± 0.21 | 1.15 ± 0.21 | 1 ± 0.07
26 | SAGGSAGGIKELLEALGFEVVDVEPTDNKFMIMIRNPEEGRVVVIEIEWDGPPKIEIHPMPPNASAGGSAGG [r6_195_TrROS] | 2.31 ± 0.13 | 2.11 ± 0.04 | 2.38 ± 0.065
27 | SAGGMITLTLPIPAEFLEKHGLDEAKKIVLEKAKEELKKLGLSEKYPIKKIEITPEPESLTATIVILSAGGS [r16_368_JUSTAS] | 2 ± 0.04 | 1.95 ± 0.026 | 2 ± 0.036
28 | SAGGGPLSPGSVPVEEEVTEVVEDPATGTVTTRSRVRYPDGVEVEVTTTTPAPGLPEVSTTEVTVRPASAGG [r13_894_JUSTAS] | 0.929 ± 0.11 | 0.948 ± 0.018 | 0.978 ± 0.044
29 | EKALEAARELARKLAEELGVEVEVRVKKVSVLNENGELIAEVEVEITVRPLPPPVVEEEEVEEEEVEFEEES [r1_318_TrROS_Hall] | 1.99 ± 0.23 | 2.18 ± 0.17 | 1.82 ± 0.1
30 | SAGGVLLEFPDGTTVEITVTTSTSTFKDPTTDKTVTKSSTTITVTRKTPDPVVTPVPASEAQRIFDSTSAGG [r13_809_JUSTAS] | 2.47 ± 0.21 | 2.96 ± 0.2 | 2.13 ± 0.079
31 | SAGGSAGGSKTIVLPKNMSIEQAREEILAKARELLPPGEKLKVTIEVVETPEGTYLKITIEKESAGGSAGGS [r12_1051_TrROS_Hall] | 3.22 ± 0.058 | 3.51 ± 0.086 | 2.49 ± 0.06
32 | SATVTLVSVEKEGDKTTVTTRDPSGYTVTVTNPDGSIVLAPIPAEGAEAAIAAIKAAHPGVTVTLEAAASAG [r14_528_JUSTAS] | 1.15 ± 0.11 | 1.24 ± 0.031 | 0.617 ± 0.036
33 | MEAEELATTLAAEALAPLPRPFEIDPENNEVRVPGGGELAELPIRVVLVDEDGEIVEERIVPVRIRAEEPGS [r1_318_TrMRF] | 0.542 ± 0.11 | 0.878 ± 0.083 | -0.362 ± 0.14
34 | SAGGSAKVIRVKSLEEALKLAEEAKKAGLEVEIKLLPDGSVLITVKPKPKPKVKKVEKKVKLPEGKSAGGSA [r15_761_TrROS_Hall] | 1.36 ± 0.15 | 1.96 ± 0.077 | 0.507 ± 0.074
35 | SAGGSFSVDVPPDATVEVEEKVKRPDGSEVHLKITITRLPTSGKVLVTVEDNPPEKGSTTKEEIVPLESAGG [r13_934_JUSTAS] | 0.658 ± 0.28 | 0.975 ± 0.068 | -0.431 ± 0.38
36 | SAGGSAGGMKIKVKFTITKSDPNSDSPVPRVITKEFESLEEAEKEFNKLKNLPSGYTVEVEIVESAGGSAGG [r7_0_JUSTAS] | 3.62 ± 0.1 | 3.82 ± 0.043 | 3.16 ± 0.11
37 | SAGGSAGGSKELLKNLPPGAKITVEKKEDGTVRITITNKDGSEKEIEIKVNGKIIKLTIKKKPSAGGSAGGS [r20_50_TrROS_Hall] | 1.04 ± 0.32 | 0.245 ± 0.42 | 2.04 ± 0.098
38 | MPNLKPALLVIPMKVESIEEAEEKVLAFAEELAEAFPNIKKIEVEILEIDEENGIVIAKITVEAEDSALDAS [r1_52_TrMRF] | 2.13 ± 0.19 | 2.34 ± 0.051 | 2.12 ± 0.1
39 | SAGSEEEKKAIAEELKEKILKERPELQKKEYTVEVEITPLPDDSIRITVTVTLPSGETETREYVYPNKSAGG [r19_194_JUSTAS] | 3 ± 0.24 | 2.95 ± 0.21 | 2.71 ± 0.26
40 | SAGGSAGGMEIRIEKDENGFLRLKVINKKTKKETEIEIPVEDEDALKKLLDAGVERVEIEPLPPSAGGSAGG [r6_639_TrROS_Hall] | 1.14 ± 0.21 | 1.34 ± 0.08 | 0.399 ± 0.13
41 | SAGGSAEKPVRTLEITVTVPPGQPTPEELARALAEELGVEVTRVEVVRVERNEDGELTVTVRVEVKSAGGSA [r15_654_TrROS_Hall] | 2.99 ± 0.14 | 2.5 ± 0.14 | 3.2 ± 0.21
42 | SAGGSAGGSAGGEWRTLYIPIPGMPPEFIETFALELLDDGAKVEDIEWNPNNGYLMITVRSAGGSAGGSAGG [r7_906_TrROS] | 1.82 ± 0.075 | 2.05 ± 0.056 | 1.37 ± 0.029

Source: the supplement of paper PMC12764529
